Experimental data: paper PMC2528196

How the values were obtained:
purified protein = substrate: Nc1ncnc2c1ncn2[C@@H]1O[C@H](COP(=O)(O)OP(=O)(O)OP(=O)(O)O)[C@@H](O)[C@H]1O; assay: purified protein; conditions: saturating 56-mer ssDNA, 37°C, pH 7.6, 7 mM MgCl2, 100 mM NaCl
Srs2 = Srs2 (Saccharomyces cerevisiae, UniProt P12954 1-1174); assay: EMSA

B1: Srs2 (Saccharomyces cerevisiae S288C) (protein)
chain: MSSNNDLWLHLVSQLNTQQRAAALFDYTRGLQVIAGPGTGKTKVLTSRVAYLILHHHIHPRDIIVTTFTNKAANEMKERLQEMLRGAGVNISELLIGTFHSICLKILYRFGHLVDLQKDWRIIDEKEIDVILDDMIEKVPDQIRDYASSITRKVNLCMPSKNGDEWTIHPKLIKKQISKLKSNAILPEEYILDSNHDAALGYFYQIYQSELSKKNTLDFDDLLMYTFRLLTRVRVLSNIKHVLVDEFQDTNGIQLDLMFLFAKGNHHLSRGMTIVGDPDQSIYAFRNALAHNFLEMGRKCPIEYSTIILVENYRSSQKILNTSEILITQQNKGRQNRAPLRAQFDLDFPPVYMNFPAYFLEAPSLVRELLYLKALPNLFTFNDFAILVRQRRQIKRIESALIEHRIPYKIIRGHSFWDSKETRAMLNLLKLIFSPNDKHAILASLLYPARGLGPATGEKIKNALDTLATDVSCFQILKDISSKKIMLDIPTKGRSVIADFISMIENCQLLLQSTLLGGLSDLFDKLYELSGLKYEYLYKDGKKKNDQLEKSEPNLLNARHKNIELLKNYFLALLSKSESSDKEKNEAIKAATDEAEPIENKVITPKEYLRNFFNSLSLHSDAAEEEESESNKDAKIKREKNGFVTISTIHGAKGLEWPVVFIPGCEEGIIPCVFNDDKKDESEEDEEEDQENSKKDASPKKTRVLSVEDSIDEERRMFFVAQTRAKYLLYLSNTVTVEDVDRPRIASRFLTTDLIKAMSDSQKLFESTNSIKKLYRILNKKPPAEDDKLFSLDQLRKDYNQFIENRRERMIWQGIQMNDVYGIQLSRNKLLGSVSDFTSAADQLRLETQNSIFPQKKLIEKSRPSKINGNYAPKSRVKSPEKRYAPETTSFHSPTKKKVYAPQYVSTTNVPSRQEFHSSTGKNIPFLRREDRSITDISPRSSTRSLKGASPNKTSHMSDDLMRPSPTRKDKVTRNIHFATAGTFRIETQSNVDELHPPEYSNKSGQSLTSSEFSGFSSACSNSDQPTNLIEDINNELDLSDEELLNDISIERRRELLGSKKTKKIKPKTRNRKSKRGDKVKVEEVIDLKSEFEEDDSRNTTAAELLHNPDDTTVDNRPIISNAKFLADAAMKKTQKFSKKVKNEPASSQMDIFSQLSRAKKKSKLNNGEIIVID
Question: With B1 as the binder, how does the Km (purified protein) read?
Answer: 143 µM

Question: And the kcat (purified protein)?
Answer: 55.3 s⁻¹

B2: forked DNA P1/P2 (dsDNA)
DNA 1: AGAAGGTTTCGAATCAGAGGTAGGTGCCCGGCCTCCAACTTGCCGTATTCCTGGT
DNA 2: ACCAGGAATACGGCAAGTTGGAGGCCGGGCTGGATGGAGACTAAGCTTTGGAAGT
Question: Does B2 bind (Srs2)?
Answer: binds
